# What was measured:
# [1] = biological target: T7-bio: coliphage T7 major capsid protein gp10A fused to the 15-amino acid biotinylation peptide, biotinylated in vivo by the host BLP (Enterobacteria phage T7); assay: TEM of phage adsorbed to carrier E. coli cells, streptavidin-coated QDs in excess
# [2] = biological target: T7-bio: coliphage T7 major capsid protein gp10A fused to the 15-amino acid biotinylation peptide, biotinylated in vivo by the host BLP (Enterobacteria phage T7); assay: flow cytometry of carrier E. coli cells with phage at MOI 5 and streptavidin-QDs
# T7-bio: coliphage T7 major capsid protein gp10A fused to the 15-amino acid biotinylation peptide, biotinylated in vivo by the host BLP (Enterobacteria phage T7), sequence (P19727 1-349, tags or fused parts left off): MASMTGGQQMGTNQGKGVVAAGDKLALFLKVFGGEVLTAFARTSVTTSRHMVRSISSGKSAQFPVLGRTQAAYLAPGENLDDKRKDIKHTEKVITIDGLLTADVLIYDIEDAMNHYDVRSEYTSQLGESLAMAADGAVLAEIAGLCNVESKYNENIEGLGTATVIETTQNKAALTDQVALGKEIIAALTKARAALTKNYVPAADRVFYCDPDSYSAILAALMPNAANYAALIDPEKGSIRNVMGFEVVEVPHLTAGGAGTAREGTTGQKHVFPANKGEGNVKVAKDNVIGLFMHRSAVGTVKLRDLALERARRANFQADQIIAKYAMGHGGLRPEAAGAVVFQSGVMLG
substance,measurement,setting,value
"streptavidin coated QD (QD 605), Quantum Dot Corporation (from UniProt P22629 37-163)",percent of T7-bio phage with no QDs bound,[1],7%
same,percent of the total peptides displayed that carry a QD,[1],0.5%
same,fluorescence against the T7-myc control (orders of magnitude),[2],2
same,percent of phage-bound cells with fluorescence above the threshold (P2),[2],94%

# — patent US20110086338A1
